Data published in patent US20210373004A1 (BIOASTER, published 2021).

Experiments:
Flag-EmGFP-ColE2-6His [1] = target: T1, Flag-EmGFP-ColE2-6His (Escherichia coli); assay: EIA 8 plex n° 1: colicin coated at 100 nM, Im-RLuc8 alone at 100 nM, luciferase signal (FIG. 3, light grey bars)
T1 construct: Coated on the plate or sprayed on the membrane; also called Colicin E2

[2] = target: T2, Flag-mCherry-ColLeaf-Cys-6His (Pseudomonas sp Leaf83); assay: EIA 8 plex n° 2: colicin coated at 100 nM, Im-RLuc8 at 100 nM, luminescence; light bar alone, dark bar with the 7 other unfused Im proteins
[3] = target: T3, Flag-mCherry-ColErw-Cys-6His (Pectobacterium carotovorum); assay: as above
Flag-EmGFP-ColE2-6His [4] = target: T1, Flag-EmGFP-ColE2-6His; assay: EIA 4 plex: colicin coated at 100 nM, Im-RLuc8 alone at 100 nM, luciferase signal (FIG. 1, light grey bars)
Flag-EmGFP-ColE2-6His [5] = target: T1, Flag-EmGFP-ColE2-6His; assay: EIA 8 plex n° 2: colicin coated at 100 nM, Im-RLuc8 alone at 100 nM, luciferase signal (FIG. 4, light grey bars)
[6] = target: T4, Flag-mCherry-ColAP41-Cys-6His (Pseudomonas aeruginosa AP41); assay: EIA 8 plex n° 1: colicin coated at 100 nM, Im-RLuc8 at 100 nM, luminescence; light bar alone, dark bar with the 7 other unfused Im proteins
[7] = target: T5, Flag-mCherry-ColKhan-Cys-6His (Photorhabdus khanii); assay: as above
[8] = target: Flag-mCherry-ColSyr-Cys-6His (Pseudomonas syringae B728A); assay: as above
Flag-mCherry-ColE8-6His [9] = target: T6, Flag-mCherry-ColE8-6His (Escherichia coli); assay: kinetics, literature value (Li W. et al., 2004) printed above the bar pair; unit from the legend paragraph 10
T6 construct: also called Colicin E8

Flag-EmGFP-ColE7-6His [10] = target: T7, Flag-EmGFP-ColE7-6His (Escherichia coli); assay: as above
T7 construct: also called Colicin E7

Flag-EmGFP-ColE2-6His [11] = target: T1, Flag-EmGFP-ColE2-6His; assay: as above
Flag-EmGFP-ColE7-6His [12] = target: T7, Flag-EmGFP-ColE7-6His; assay: EIA 8 plex n° 1: colicin coated at 100 nM, Im-RLuc8 alone at 100 nM, luciferase signal (FIG. 3, light grey bars)
Flag-EmGFP-ColE7-6His [13] = target: T7, Flag-EmGFP-ColE7-6His; assay: EIA 4 plex: colicin coated at 100 nM, Im-RLuc8 alone at 100 nM, luciferase signal (FIG. 1, light grey bars)
[14] = target: T3, Flag-mCherry-ColErw-Cys-6His; assay: EIA 8 plex n° 1: colicin coated at 100 nM, Im-RLuc8 at 100 nM, luminescence; light bar alone, dark bar with the 7 other unfused Im proteins
Flag-mCherry-ColE9-6His [15] = target: T8, Flag-mCherry-ColE9-6His (Escherichia coli); assay: kinetics, literature value (Li W. et al., 2004) printed above the bar pair; unit from the legend paragraph 10
T8 construct: also called Colicin E9

Flag-mCherry-ColE8-6His [16] = target: T6, Flag-mCherry-ColE8-6His; assay: EIA: colicin coated at 100 nM, Im-RLuc8 at 100 nM, luminescence; light bar alone, dark bar with the 3 other unfused Im proteins
Flag-mCherry-ColE8-6His [17] = target: T6, Flag-mCherry-ColE8-6His; assay: EIA 8 plex n° 1: colicin coated at 100 nM, Im-RLuc8 alone at 100 nM, luciferase signal (FIG. 3, light grey bars)
[18] = target: T4, Flag-mCherry-ColAP41-Cys-6His; assay: EIA 8 plex n° 2: colicin coated at 100 nM, Im-RLuc8 at 100 nM, luminescence; light bar alone, dark bar with the 7 other unfused Im proteins
Flag-mCherry-ColE8-6His [19] = target: T6, Flag-mCherry-ColE8-6His; assay: EIA 4 plex: colicin coated at 100 nM, Im-RLuc8 alone at 100 nM, luciferase signal (FIG. 1, light grey bars)
Flag-mCherry-ColE8-6His [20] = target: T6, Flag-mCherry-ColE8-6His; assay: EIA 8 plex n° 2: colicin coated at 100 nM, Im-RLuc8 alone at 100 nM, luciferase signal (FIG. 4, light grey bars)
[21] = target: T2, Flag-mCherry-ColLeaf-Cys-6His; assay: EIA 8 plex n° 2: colicin coated at 100 nM, Im-RLuc8 alone at 100 nM, luciferase signal
Flag-EmGFP-ColE7-6His [22] = target: T7, Flag-EmGFP-ColE7-6His; assay: EIA 8 plex n° 1: colicin coated at 100 nM, Im-RLuc8 alone at 100 nM, luciferase signal
Flag-mCherry-ColE9-6His [23] = target: T8, Flag-mCherry-ColE9-6His; assay: as above
[24] = target: T3, Flag-mCherry-ColErw-Cys-6His; assay: as above
[25] = target: T4, Flag-mCherry-ColAP41-Cys-6His; assay: EIA 8 plex n° 1: colicin coated at 100 nM, Im-RLuc8 alone at 100 nM, luciferase signal (FIG. 3, light grey bars)
[26] = target: T5, Flag-mCherry-ColKhan-Cys-6His; assay: EIA 8 plex n° 2: colicin coated at 100 nM, Im-RLuc8 at 100 nM, luminescence; light bar alone, dark bar with the 7 other unfused Im proteins
[27] = target: T4, Flag-mCherry-ColAP41-Cys-6His; assay: EIA 8 plex n° 2: colicin coated at 100 nM, Im-RLuc8 alone at 100 nM, luciferase signal (FIG. 4, light grey bars)
Flag-mCherry-ColE8-6His [28] = target: T6, Flag-mCherry-ColE8-6His; assay: EIA 8 plex n° 1: colicin coated at 100 nM, Im-RLuc8 at 100 nM, luminescence; light bar alone, dark bar with the 7 other unfused Im proteins
Flag-EmGFP-ColE7-6His [29] = target: T7, Flag-EmGFP-ColE7-6His; assay: as above
Flag-mCherry-ColE9-6His [30] = target: T8, Flag-mCherry-ColE9-6His; assay: as above
Flag-EmGFP-ColE2-6His [31] = target: T1, Flag-EmGFP-ColE2-6His; assay: as above

B1: Myc-RLuc8-Im2-6His (other)
chain: MGGEQKLISEEDLGGSASKVYDPEQRKRMITGPQWWARCKQMNVLDSFINYYDSEKHAENAVIFLHGNATSSYLWRHVVPHIEPVARCIIPDLIGMGKSGKSGNGSYRLLDHYKYLTAWFELLNLPKKIIFVGHDWGAALAFHYAYEHQDRIKAIVHMESVVDVIESWDEWPDIEEDIALIKSEEGEKMVLENNFFVETVLPSKIMRKLEPEEFAAYLEPFKEKGEVRRPTLSWPREIPLVKGGKPDVVQIVRNYNAYLRASDDLPKLFIESDPGFFSNAIVEGAKKFPNTEFVKVKGLHFLQEDAPDEMGKYIKSFVERVLKNEQKLELKHSISDYTEAEFLEFVKKICRAEGATEEDDNKLVREFERLTEHPDGSDLIYYPRDDREDSPEGIVKEIKEWRAANGKSGFKQGLEGGGSHHHHHH
notes: Immunity protein fused to the luciferase RLuc8 as reporter; added in solution; also called Im2-RLuc8; Im2-Rluc8
RLU (Flag-EmGFP-ColE2-6His [1]): > 2e+06 RLU | binding result [2]: no binding (tested: 100 nM) | binding result [3]: no binding (tested: 100 nM) | RLU (Flag-EmGFP-ColE2-6His [4]): > 400000 RLU | RLU (Flag-EmGFP-ColE2-6His [5]): > 2.4e+06 RLU | binding result [6]: no binding (tested: 100 nM) | binding result [7]: no binding (tested: 100 nM) | binding result [8]: no binding (tested: 100 nM) | Kd (Flag-mCherry-ColE8-6His [9]): 18 nM | Kd (Flag-EmGFP-ColE7-6His [10]): 0.36 nM | Kd (Flag-EmGFP-ColE2-6His [11]): 3.9e-06 nM

B2: Myc-RLuc8-Im7-6His (other)
chain: MGGEQKLISEEDLGGSASKVYDPEQRKRMITGPQWWARCKQMNVLDSFINYYDSEKHAENAVIFLHGNATSSYLWRHVVPHIEPVARCIIPDLIGMGKSGKSGNGSYRLLDHYKYLTAWFELLNLPKKIIFVGHDWGAALAFHYAYEHQDRIKAIVHMESVVDVIESWDEWPDIEEDIALIKSEEGEKMVLENNFFVETVLPSKIMRKLEPEEFAAYLEPFKEKGEVRRPTLSWPREIPLVKGGKPDVVQIVRNYNAYLRASDDLPKLFIESDPGFFSNAIVEGAKKFPNTEFVKVKGLHFLQEDAPDEMGKYIKSFVERVLKNEQKLELKNSISDYTEAEFVQLLKEIEKENVAATDDVLDVLLEHFVKITEHPDGTDLIYYPSDNRDDSPEGIVKEIKEWRAANGKPGFKQGLEGGGSHHHHHH
notes: Immunity protein fused to the luciferase RLuc8 as reporter; added in solution; also called Im7-RLuc8; Im7-Rluc8
RLU (Flag-EmGFP-ColE7-6His [12]): > 2e+06 RLU | RLU (Flag-EmGFP-ColE7-6His [13]): > 400000 RLU | binding result [6]: no binding (tested: 100 nM) | binding result [7]: no binding (tested: 100 nM) | binding result [8]: no binding (tested: 100 nM) | binding result [14]: no binding (tested: 100 nM) | Kd (Flag-mCherry-ColE9-6His [15]): ~100000 nM | Kd (Flag-EmGFP-ColE2-6His [11]): 14 nM | binding result (Flag-mCherry-ColE8-6His [16]): binds

B3: Myc-RLuc8-Im8-6His (other)
chain: MGGEQKLISEEDLGGSASKVYDPEQRKRMITGPQWWARCKQMNVLDSFINYYDSEKHAENAVIFLHGNATSSYLWRHVVPHIEPVARCIIPDLIGMGKSGKSGNGSYRLLDHYKYLTAWFELLNLPKKIIFVGHDWGAALAFHYAYEHQDRIKAIVHMESVVDVIESWDEWPDIEEDIALIKSEEGEKMVLENNFFVETVLPSKIMRKLEPEEFAAYLEPFKEKGEVRRPTLSWPREIPLVKGGKPDVVQIVRNYNAYLRASDDLPKLFIESDPGFFSNAIVEGAKKFPNTEFVKVKGLHFLQEDAPDEMGKYIKSFVERVLKNEQKLELKNSISDYTETEFKKIIEDIINCEGDEKKQDDNLEHFISVTEHPSGSDLIYYPEGNNDGSPEAVIKEIKEWRAANGKSGFKQGLEGGGSHHHHHH
notes: Immunity protein fused to the luciferase RLuc8 as reporter; added in solution; also called Im8-RLuc8; Im8-Rluc8
RLU (Flag-mCherry-ColE8-6His [17]): > 2e+06 RLU | binding result [18]: no binding (tested: 100 nM) | RLU (Flag-mCherry-ColE8-6His [19]): > 400000 RLU | RLU (Flag-mCherry-ColE8-6His [20]): > 2.4e+06 RLU | RLU [21]: > 100000 RLU | binding result [7]: no binding (tested: 100 nM) | binding result [8]: no binding (tested: 100 nM) | RLU (Flag-EmGFP-ColE7-6His [22]): > 100000 RLU | RLU (Flag-mCherry-ColE9-6His [23]): > 100000 RLU | RLU [24]: > 100000 RLU | Kd (Flag-EmGFP-ColE7-6His [10]): 0.37 nM | Kd (Flag-mCherry-ColE9-6His [15]): 500 nM | Kd (Flag-EmGFP-ColE2-6His [11]): 38 nM

B4: Myc-RLuc8-ImAP41-Avitag-6His (other)
chain: MGGEQKLISEEDLGGSASKVYDPEQRKRMITGPQWWARCKQMNVLDSFINYYDSEKHAENAVIFLHGNATSSYLWRHVVPHIEPVARCIIPDLIGMGKSGKSGNGSYRLLDHYKYLTAWFELLNLPKKIIFVGHDWGAALAFHYAYEHQDRIKAIVHMESVVDVIESWDEWPDIEEDIALIKSEEGEKMVLENNFFVETVLPSKIMRKLEPEEFAAYLEPFKEKGEVRRPTLSWPREIPLVKGGKPDVVQIVRNYNAYLRASDDLPKLFIESDPGFFSNAIVEGAKKFPNTEFVKVKGLHFLQEDAPDEMGKYIKSFVERVLKNEQKLPGGSDIKNNLSDYTESEFLEIIEEFFKNKSGLKGSELEKRMDKLVKHFEEVTSHPRKSGVIFHPKPGFETPEGIVKEVKEWRAANGLPGFKAGLEGGSGGSGLNDIFEAQKIEWHELEGGGSHHHHHH
notes: Immunity protein fused to the luciferase RLuc8 as reporter; added in solution; also called ImAP41-Rluc8
RLU [25]: > 2e+06 RLU | binding result [26]: no binding (tested: 100 nM) | binding result [2]: no binding (tested: 100 nM) | RLU [27]: > 2.4e+06 RLU | binding result (Flag-mCherry-ColE8-6His [28]): no binding (tested: 100 nM) | binding result (Flag-EmGFP-ColE7-6His [29]): no binding (tested: 100 nM) | binding result (Flag-mCherry-ColE9-6His [30]): no binding (tested: 100 nM) | binding result [8]: no binding (tested: 100 nM) | binding result (Flag-EmGFP-ColE2-6His [31]): no binding (tested: 100 nM) | binding result [14]: no binding (tested: 100 nM)
